Among the data in patent US20200031911A1 (MEDANNEX, published 2020) are Kd values, retold here.

For assay [1], the target named is T1, human annexin A1 (Anx-A1) (human, UniProt P04083 2-346).
T1 construct: also called full-length human Anx-A1 (ANXA1-002 / ANXA1-003 transcripts)
T1 sequence: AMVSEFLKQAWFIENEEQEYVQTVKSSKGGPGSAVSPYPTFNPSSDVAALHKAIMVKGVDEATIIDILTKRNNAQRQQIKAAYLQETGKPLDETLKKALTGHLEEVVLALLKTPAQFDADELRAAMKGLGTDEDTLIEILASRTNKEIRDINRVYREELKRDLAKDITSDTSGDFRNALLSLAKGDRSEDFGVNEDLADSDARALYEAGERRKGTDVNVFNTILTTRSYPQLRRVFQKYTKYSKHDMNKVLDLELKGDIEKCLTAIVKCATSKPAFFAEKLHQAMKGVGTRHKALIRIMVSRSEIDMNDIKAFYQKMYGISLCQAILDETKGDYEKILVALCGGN
Kind of assay: Biacore SPR, average of three assays; antibody captured, Anx-A1 as analyte. Here is the method: (§1) The Mdx001 antibody was immobilised on a chip via a goat anti-mouse IgG. Ligand (Anx-A1) was passed over the immobilised antibody in running buffer. Anx-A1 was used at a concentration of 5, 10, 20, 40 or 80 nM. In each experiment, a total of 150 μl Anx-A1-containing running buffer was passed over the antibody, at a flow rate of 30 μl/min.
(§2) Regeneration was performed using a regeneration buffer, 10 mM glycine-HCl, pH 2. To regenerate the chip, 70 μl regeneration buffer was passed over the chip at a rate of 10 μl/min.
(§3) Experiments were performed in triplicate.
On the technique in general: SPR reads the build-up and loss of mass on a sensor chip optically.

For assay [2], the target named is T1, human annexin A1 (Anx-A1). The assay can be described thus: Biacore SPR, assay 1 of 3; antibody captured via goat anti-mouse IgG, Anx-A1 at 5-80 nM as analyte, 1 mM CaCl2. Here is the method:
as §1, §2, §3

Assay [3] deals with T1, human annexin A1 (Anx-A1). Kind of assay: Biacore SPR, assay 2 of 3; antibody captured via goat anti-mouse IgG, Anx-A1 at 5-80 nM as analyte, 1 mM CaCl2. Here is the method: as §1, §2, §3
Assay [4] addresses T1, human annexin A1 (Anx-A1). The assay can be described thus: Biacore SPR, assay 3 of 3; antibody captured via goat anti-mouse IgG, Anx-A1 at 5-80 nM as analyte, 1 mM CaCl2. Here is the method:
as §1, §2, §3

Assay [5] has as its target T1, human annexin A1 (Anx-A1). Kind of assay: Biacore SPR, assay 1 of 3, method of Example 4; first of three experiments. As for the experimental part:
as §1
(§4) In light of the ELISA results, the LC1(mod 1)HC4 and LC2(mod 1)HC2 antibodies were discarded. […] Binding of LC1(mod 2)HC4 and LC2(mod 2)HC2 to Anx-A1 was quantified by Biacore, using the same method as described in Example 4. As in Example 4, the Biacore experiments were performed in triplicate. […] LC1(mod 2)HC4 was given the name MDX-L1M2H4. […] LC2(mod 2)HC2 was given the name MDX-L2M2H2.

The target of assay [6] is T1, human annexin A1 (Anx-A1). The assay can be described thus: Biacore SPR, assay 3 of 3, method of Example 4; third of three experiments. As for the experimental part:
as §1, §4

Assay [7] concerns the target T1, human annexin A1 (Anx-A1). The assay can be described thus: Biacore SPR, assay 2 of 3, method of Example 4; second of three experiments. As for the experimental part:
as §1, §4

The target of assay [8] is T1, human annexin A1 (Anx-A1). The assay can be described thus: Biacore SPR, average of three assays, method of Example 4; average of the three experiments. As for the experimental part:
as §1, §4

B1: Mdx001 (antibody, mouse IgG2b, kappa, V domains shown)
VH: QVQLQQSGPELVRPGTSVKMSCKASGYTFTNYWIGWAKQRPGHGLEWIGDIYPGGDYTNYNEKFKGKATLTADKSSSTAYMQFSSLTSEDSAIYYCARWGLGYYFDYWGQGITLTVSS
VL: DAVMTQTPLSLPVSLGDQVSISCRSSQSLENSNGKTYLNWYLQKPGQSPQLLIYGVSNRFSGVLDRFSGSGSGTDFTLKISRVEAEDLGVYFCLQVTHVPYTFGGGTKLEIKR
notes: also called murine anti-Anx-A1 antibody
Broadly, the Kd is the free concentration of one partner at which half of the binding sites on the other are occupied at equilibrium, for simple one-to-one binding. Read a low Kd as higher affinity. For the molecule B1, the Kd in assay [1] is 8.49 nM; in assay [2] it was 9.43 nM; in assay [3], 9.58 nM; in assay [4], 6.46 nM.

B2: MDX-L2M2H2 (antibody, human IgG1, kappa, V domains shown)
VH: QVQLVQSGPEVKKPGESLKISCKGSGYTFTNYWIGWVRQAPGKGLEWMGDIYPGGDYTNYNEKFKGQVTISADKSISTAYLQWSSLKASDTAIYYCARWGLGYYFDYWGRGTLVTVSS
VL: DIVMTQTPLSLSVTPGQPASISCRSSQSLENSNAKTYLNWYLQKPGQSPQLLIYGVSNRFSGVPDRFSGSGSGTDFTLKISRVEAEDVGVYYCLQVTHVPYTFGQGTKVEIKR
notes: also called LC2(mod 2)HC2; variant 1 of MDX-L2H2
For B2, the Kd in assay [5] stood at 4.44 nM; in assay [6], 5.17 nM; in assay [7], 4.37 nM; in assay [8] it was 4.66 nM.
